pKd: −log10 of the molar value.
How the values were obtained:
[1] = target: T1, TFAM (WT) (human) (UniProt Q00059); assay: DNase I footprinting; details: Footprinting: 10 mM HEPES pH 7.5, 10 mM MgCl2, 10 mM CaCl2 (so in the source), 100 mM NaCl, 1 mM TCEP, 0.1 mg/mL BSA, 32°C; AFM buffer not in material
T1 sequence: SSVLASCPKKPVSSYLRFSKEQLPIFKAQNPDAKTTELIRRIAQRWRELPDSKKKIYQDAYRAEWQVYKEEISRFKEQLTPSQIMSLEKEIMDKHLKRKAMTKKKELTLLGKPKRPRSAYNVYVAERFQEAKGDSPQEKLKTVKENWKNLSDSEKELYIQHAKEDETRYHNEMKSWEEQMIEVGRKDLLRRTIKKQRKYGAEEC

[2] = target: TFAM-CTΔ26;POLRMT;TFB2M del221-246 (human;human?;human?) (UniProt Q00059+O00411+Q9H5Q4); assay: DNase I footprinting; details: Footprinting: 10 mM HEPES pH 7.5, 10 mM MgCl2, 10 mM CaCl2 (so in the source), 100 mM NaCl, 1 mM TCEP, 0.1 mg/mL BSA, 32°C; AFM buffer not in material
Chain of TFAM-CTΔ26;POLRMT;TFB2M del221-246 (human;human?;human?) (O00411 42-1230, stated change not applied, chain 2 of 2): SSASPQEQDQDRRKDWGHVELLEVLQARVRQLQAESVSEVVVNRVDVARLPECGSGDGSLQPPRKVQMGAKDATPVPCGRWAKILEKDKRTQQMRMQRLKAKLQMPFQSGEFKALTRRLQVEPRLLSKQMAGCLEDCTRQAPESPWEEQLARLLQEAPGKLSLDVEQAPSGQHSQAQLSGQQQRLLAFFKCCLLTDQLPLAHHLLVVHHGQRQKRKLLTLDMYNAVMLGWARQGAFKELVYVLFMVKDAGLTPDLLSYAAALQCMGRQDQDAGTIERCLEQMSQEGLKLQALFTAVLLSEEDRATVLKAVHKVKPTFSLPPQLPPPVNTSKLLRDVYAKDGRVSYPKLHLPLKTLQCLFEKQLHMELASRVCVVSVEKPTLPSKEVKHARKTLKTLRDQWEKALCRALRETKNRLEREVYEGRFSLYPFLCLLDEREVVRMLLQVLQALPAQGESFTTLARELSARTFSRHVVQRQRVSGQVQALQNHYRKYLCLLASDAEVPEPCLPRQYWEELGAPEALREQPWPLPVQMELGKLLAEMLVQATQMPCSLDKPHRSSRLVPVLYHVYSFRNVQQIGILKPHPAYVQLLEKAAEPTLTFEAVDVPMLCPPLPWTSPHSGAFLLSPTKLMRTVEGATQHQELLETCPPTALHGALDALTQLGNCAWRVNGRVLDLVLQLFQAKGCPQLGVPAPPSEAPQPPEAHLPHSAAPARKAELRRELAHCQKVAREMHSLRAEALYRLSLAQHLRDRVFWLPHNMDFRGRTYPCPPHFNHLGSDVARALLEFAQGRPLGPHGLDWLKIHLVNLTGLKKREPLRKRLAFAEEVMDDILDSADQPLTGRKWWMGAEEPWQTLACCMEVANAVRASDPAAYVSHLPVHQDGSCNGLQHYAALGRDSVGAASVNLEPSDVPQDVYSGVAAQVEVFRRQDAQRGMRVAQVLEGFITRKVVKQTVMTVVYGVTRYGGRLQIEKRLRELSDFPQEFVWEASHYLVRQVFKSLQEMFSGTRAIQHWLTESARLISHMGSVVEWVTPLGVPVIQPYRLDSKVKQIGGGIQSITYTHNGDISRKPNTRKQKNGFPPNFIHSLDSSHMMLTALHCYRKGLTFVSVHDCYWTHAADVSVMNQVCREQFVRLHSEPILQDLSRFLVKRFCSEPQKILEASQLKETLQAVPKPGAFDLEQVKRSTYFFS
Chain of TFAM-CTΔ26;POLRMT;TFB2M del221-246 (human;human?;human?) (Q9H5Q4 20-396, stated change not applied, chain 3 of 2): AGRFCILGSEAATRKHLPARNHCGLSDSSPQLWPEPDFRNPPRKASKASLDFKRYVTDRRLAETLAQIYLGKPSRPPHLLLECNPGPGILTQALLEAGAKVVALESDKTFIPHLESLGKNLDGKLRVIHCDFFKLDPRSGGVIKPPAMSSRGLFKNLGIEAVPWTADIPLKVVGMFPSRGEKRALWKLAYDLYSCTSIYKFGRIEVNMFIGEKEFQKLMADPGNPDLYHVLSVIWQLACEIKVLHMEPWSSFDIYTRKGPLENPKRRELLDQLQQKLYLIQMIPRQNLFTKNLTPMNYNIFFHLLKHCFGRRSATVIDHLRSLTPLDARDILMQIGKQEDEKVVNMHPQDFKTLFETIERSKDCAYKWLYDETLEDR

[3] = test system: TFAM (WT) (human); assay: AFM in liquid, fractional DNA contour coverage; details: effective free TFAM concentration; Footprinting: 10 mM HEPES pH 7.5, 10 mM MgCl2, 10 mM CaCl2 (so in the source), 100 mM NaCl, 1 mM TCEP, 0.1 mg/mL BSA, 32°C; AFM buffer not in material
[4] = test system: TFAM-CTΔ26 (human); assay: AFM in liquid, persistence length; details: 100 nM CTΔ26 (33 nm) similar to 10 nM TFAM (30 nm); no looping enhancement; Footprinting: 10 mM HEPES pH 7.5, 10 mM MgCl2, 10 mM CaCl2 (so in the source), 100 mM NaCl, 1 mM TCEP, 0.1 mg/mL BSA, 32°C; AFM buffer not in material

Row | Substance | binding [1] | binding [2] | pKd [3] | binding signal (fold weaker than WT TFAM) [4]
1 | ATTGCTTTGAGGAGGTAAGCTACATAAACTGTGGGGGGTGTCTTTGGGGTTTGGTTGGTTCGGGGTATGGGGTTAGCAGCGGTGTGTGTGTGCTGGGTAGGATGGGCGGGGGTTGTATTGATGAGATTAGTAGTATGGGAGTGGGAGGGGAAAATAATGTGTTAGTTGGGGGGTGACTGTTAAAAGTGCATACCGCCAAAAGATAAAATTTGAAATCTGGTTAGGCTGGTGTT (double strand) [dual promoter template (DPT-WT)] | binds | binds more weakly |  | 
2 | puc18 control construct (AFM) |  |  | 6.70 | 
3 | mtDNA construct (AFM) |  |  | 7.23 | 10
